The assay concerns the target T1, CD3ε homodimer protein (human, UniProt P07766 23-126, limits assumed).
T1 construct: also called CD3 (CD3ε)
The experiment in a line: SPR.

T1 sequence (P07766 23-126 limits assumed): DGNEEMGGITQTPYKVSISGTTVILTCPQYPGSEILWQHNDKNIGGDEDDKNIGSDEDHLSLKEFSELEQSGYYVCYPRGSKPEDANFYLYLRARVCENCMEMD
Procedure: Each one-amino acid altered form constructed, expressed, and purified in the paragraph (6-2) was evaluated using Biacore T200 (GE Healthcare Japan Corp.). An appropriate amount of CD3ε homodimer protein was immobilized onto Sensor chip CM4 (GE Healthcare Japan Corp.) by the amine coupling method. Then, the antibody having an appropriate concentration was injected thereto as an analyte and allowed to interact with the CD3ε homodimer protein on the sensor chip. Then, the sensor chip was regenerated by the injection of 10 mmol/L glycine-HCl (pH 1.5). The assay was conducted at 25° C., and HBS-EP+ (GE Healthcare Japan Corp.) was used as a running buffer. […] Each parameter was calculated using Biacore T200 Evaluation Software (GE Healthcare Japan Corp.).
Specifically, when the amount of the GLS3000-containing antibody bound was defined as X and the amount of the L chain one-amino acid altered form bound was defined as Y, a value of Z (ratio of amounts bound)=Y/X was used.

B1: CE115HA000 / GLS3000 one-arm antibody (unaltered) (antibody, human IgG1, kappa, L234A L235A, N297A)
heavy: QVQLVESGGGVVQPGRSLRLSCAASGFTFSNAWMHWVRQAPGKGLEWVAQIKAKSNNYATYYAESVKGRFTISRDDSKNSLYLQMNSLKTEDTAVYYCRYVHYGAYYGVDAWGQGTTVTVSSASTKGPSVFPLAPSSKSTSGGTAALGCLVKDYFPEPVTVSWNSGALTSGVHTFPAVLQSSGLYSLSSVVTVPSSSLGTQTYICNVNHKPSNTKVDKKVEPKSCDKTHTCPPCPAPEAAGGPSVFLFPPKPKDTLMISRTPEVTCVVVDVSHEDPEVKFNWYVDGVEVHNAKTKPREEQYASTYRVVSVLTVLHQDWLNGKEYKCKVSNKALPAPIEKTISKAKGQPREPQVYTLPPSRCELTKNQVSLSCAVKGFYPSDIAVEWESNGQPENNYKTTPPVLDSDGSFFLVSKLTVDKSRWQQGNVFSCSVMHEALHNHYTQKSLSLSPDYKDDDDK
chain: EPKSSDKTHTCPPCPAPELLGGPSVFLFPPKPKDTLMISRTPEVTCVVVDVSHEDPEVKFNWYVDGVEVHNAKTKPREEQYNSTYRVVSVLTVLHQDWLNGKEYKCKVSNKALPAPIEKTISKAKGQPREPQVCTLPPSRDELTKNQVSLWCLVKGFYPSDIAVEWESNGQPENNYKTTPPVLDSDGSFFLYSKLTVDKSRWQQGNVFSCSVMHEALHNRYTQKSLSLSP
light: DIVMTQSPLSLPVTPGEPASISCRSSQSLVHSNRNTYLHWYQQKPGQAPRLLIYKVSNRFSGVPDRFSGSGSGTDFTLKISRVEAEDVGVYYCGQGTQVPYTFGQGTKLEIKRTVAAPSVFIFPPSDEQLKSGTASVVCLLNNFYPREAKVQWKVDNALQSGNSQESVTEQDSKDSTYSLSSTLTLSKADYEKHKVYACEVTHQGLSSPVTKSFNRGEC
notes: All L chain altered forms m3-m332 have this format; for them only VH and VL are written out; also called GLS3000-containing antibody
On to B1, for which the “KD ratio to GLS3000” value came out at 0.98.
